Laboratory results from the supplement of paper PMC10065799, “High-throughput profiling of sequence recognition by tyrosine kinases and SH2 domains using bacterial peptide display” (eLife, 2023).

How the values were obtained:
AncSZ = experiment: phosphorylation enrichment, bacterial display (enrichment ratio); higher = better substrate or ligand; peptides without Tyr show the background
Fes = Fes (UniProt P07332); experiment: as above
Fer (mouse) = experiment: as above
Fyn = Fyn (UniProt P06241); experiment: as above
EPHB1 = EPHB1 (UniProt P54762); experiment: as above
Sequence of EPHB1 (P54762 whole entry, looked up): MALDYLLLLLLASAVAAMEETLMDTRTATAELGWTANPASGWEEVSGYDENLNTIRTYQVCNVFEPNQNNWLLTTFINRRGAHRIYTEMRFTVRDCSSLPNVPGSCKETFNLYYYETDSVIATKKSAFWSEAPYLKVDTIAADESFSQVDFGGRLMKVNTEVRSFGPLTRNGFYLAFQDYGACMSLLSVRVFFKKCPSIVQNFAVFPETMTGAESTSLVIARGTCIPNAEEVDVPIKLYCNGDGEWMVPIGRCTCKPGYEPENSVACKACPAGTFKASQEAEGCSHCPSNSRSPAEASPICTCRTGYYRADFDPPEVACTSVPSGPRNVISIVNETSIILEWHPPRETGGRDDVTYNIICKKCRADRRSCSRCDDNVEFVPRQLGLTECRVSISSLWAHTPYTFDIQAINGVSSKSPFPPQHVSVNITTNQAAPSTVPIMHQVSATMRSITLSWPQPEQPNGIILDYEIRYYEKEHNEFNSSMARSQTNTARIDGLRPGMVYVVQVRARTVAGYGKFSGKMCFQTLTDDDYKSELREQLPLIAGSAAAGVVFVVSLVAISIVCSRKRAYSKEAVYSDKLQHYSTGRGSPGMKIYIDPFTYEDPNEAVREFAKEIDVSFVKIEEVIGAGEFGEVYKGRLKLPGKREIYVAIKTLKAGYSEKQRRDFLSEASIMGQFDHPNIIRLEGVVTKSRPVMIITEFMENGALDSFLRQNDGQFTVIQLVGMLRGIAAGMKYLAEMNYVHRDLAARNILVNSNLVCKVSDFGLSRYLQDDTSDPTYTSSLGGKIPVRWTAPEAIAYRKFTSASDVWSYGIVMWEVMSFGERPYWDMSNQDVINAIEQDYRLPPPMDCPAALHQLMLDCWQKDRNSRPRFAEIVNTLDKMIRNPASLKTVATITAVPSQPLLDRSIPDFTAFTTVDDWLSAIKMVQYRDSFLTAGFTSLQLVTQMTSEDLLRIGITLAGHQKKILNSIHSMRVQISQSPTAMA

Hck = Hck (UniProt P08631); experiment: as above
Sequence of Hck (P08631 whole entry, looked up): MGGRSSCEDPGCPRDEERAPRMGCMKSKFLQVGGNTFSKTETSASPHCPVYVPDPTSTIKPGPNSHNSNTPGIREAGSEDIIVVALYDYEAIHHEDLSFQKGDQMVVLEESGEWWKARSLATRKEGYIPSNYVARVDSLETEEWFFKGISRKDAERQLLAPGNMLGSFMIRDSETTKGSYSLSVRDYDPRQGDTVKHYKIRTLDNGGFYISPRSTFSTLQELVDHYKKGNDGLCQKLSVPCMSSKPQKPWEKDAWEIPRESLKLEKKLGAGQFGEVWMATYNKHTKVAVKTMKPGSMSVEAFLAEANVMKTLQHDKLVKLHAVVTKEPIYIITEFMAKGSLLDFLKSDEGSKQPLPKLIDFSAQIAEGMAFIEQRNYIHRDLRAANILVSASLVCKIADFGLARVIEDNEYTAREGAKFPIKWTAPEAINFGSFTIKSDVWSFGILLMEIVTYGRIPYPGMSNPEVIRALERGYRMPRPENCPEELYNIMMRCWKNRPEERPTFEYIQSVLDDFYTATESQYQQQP

FGFR1 = FGFR1 (UniProt P11362); experiment: as above
Sequence of FGFR1 (P11362 whole entry, looked up): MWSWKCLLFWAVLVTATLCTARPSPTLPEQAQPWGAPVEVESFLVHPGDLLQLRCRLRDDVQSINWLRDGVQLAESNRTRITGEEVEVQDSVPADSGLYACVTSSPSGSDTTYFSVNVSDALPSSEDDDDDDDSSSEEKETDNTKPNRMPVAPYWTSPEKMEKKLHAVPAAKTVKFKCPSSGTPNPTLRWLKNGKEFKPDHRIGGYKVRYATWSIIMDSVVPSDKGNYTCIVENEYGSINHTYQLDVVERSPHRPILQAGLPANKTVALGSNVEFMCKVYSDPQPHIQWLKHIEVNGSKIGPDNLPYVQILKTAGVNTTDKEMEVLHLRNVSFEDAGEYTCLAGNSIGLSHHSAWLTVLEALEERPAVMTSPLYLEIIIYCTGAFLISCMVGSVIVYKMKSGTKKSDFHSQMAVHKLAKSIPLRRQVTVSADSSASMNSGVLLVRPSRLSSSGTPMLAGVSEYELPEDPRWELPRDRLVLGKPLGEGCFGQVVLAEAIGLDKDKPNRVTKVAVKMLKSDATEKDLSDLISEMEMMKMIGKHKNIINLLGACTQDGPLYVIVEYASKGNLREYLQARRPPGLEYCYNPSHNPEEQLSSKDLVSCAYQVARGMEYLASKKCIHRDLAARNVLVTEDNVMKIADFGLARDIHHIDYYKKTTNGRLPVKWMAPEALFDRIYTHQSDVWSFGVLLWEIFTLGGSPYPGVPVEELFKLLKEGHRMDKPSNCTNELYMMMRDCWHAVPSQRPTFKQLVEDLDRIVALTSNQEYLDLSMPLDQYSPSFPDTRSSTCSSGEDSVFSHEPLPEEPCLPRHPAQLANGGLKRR

Jak2 = Jak2 (UniProt O60674); experiment: as above
FGFR3 = FGFR3 (UniProt P22607); experiment: as above
Sequence of FGFR3 (P22607 whole entry, looked up): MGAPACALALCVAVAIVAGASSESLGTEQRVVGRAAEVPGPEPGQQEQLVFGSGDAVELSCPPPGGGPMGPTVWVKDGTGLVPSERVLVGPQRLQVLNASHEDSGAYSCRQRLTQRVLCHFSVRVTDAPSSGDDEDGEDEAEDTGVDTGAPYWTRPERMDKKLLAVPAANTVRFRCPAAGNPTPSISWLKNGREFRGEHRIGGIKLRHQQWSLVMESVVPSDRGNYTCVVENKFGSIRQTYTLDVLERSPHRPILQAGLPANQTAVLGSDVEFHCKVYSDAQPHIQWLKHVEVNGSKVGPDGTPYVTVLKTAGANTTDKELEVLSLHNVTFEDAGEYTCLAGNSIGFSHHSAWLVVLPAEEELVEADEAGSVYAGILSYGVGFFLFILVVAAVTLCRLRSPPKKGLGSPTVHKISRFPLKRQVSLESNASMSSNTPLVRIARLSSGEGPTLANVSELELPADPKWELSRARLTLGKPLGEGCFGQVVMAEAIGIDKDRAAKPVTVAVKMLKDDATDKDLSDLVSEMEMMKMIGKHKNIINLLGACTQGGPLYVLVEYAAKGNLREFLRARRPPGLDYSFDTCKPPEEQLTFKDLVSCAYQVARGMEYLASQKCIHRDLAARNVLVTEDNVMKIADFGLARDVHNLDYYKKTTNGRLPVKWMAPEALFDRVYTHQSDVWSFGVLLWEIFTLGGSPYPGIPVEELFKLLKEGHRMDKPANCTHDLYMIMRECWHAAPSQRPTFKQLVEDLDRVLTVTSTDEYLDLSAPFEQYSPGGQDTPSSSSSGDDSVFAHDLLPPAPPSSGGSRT

c-Src = experiment: as above
c-Abl (mouse) = experiment: as above
MERTK = MERTK (UniProt Q12866); experiment: as above
Sequence of MERTK (Q12866 whole entry, looked up): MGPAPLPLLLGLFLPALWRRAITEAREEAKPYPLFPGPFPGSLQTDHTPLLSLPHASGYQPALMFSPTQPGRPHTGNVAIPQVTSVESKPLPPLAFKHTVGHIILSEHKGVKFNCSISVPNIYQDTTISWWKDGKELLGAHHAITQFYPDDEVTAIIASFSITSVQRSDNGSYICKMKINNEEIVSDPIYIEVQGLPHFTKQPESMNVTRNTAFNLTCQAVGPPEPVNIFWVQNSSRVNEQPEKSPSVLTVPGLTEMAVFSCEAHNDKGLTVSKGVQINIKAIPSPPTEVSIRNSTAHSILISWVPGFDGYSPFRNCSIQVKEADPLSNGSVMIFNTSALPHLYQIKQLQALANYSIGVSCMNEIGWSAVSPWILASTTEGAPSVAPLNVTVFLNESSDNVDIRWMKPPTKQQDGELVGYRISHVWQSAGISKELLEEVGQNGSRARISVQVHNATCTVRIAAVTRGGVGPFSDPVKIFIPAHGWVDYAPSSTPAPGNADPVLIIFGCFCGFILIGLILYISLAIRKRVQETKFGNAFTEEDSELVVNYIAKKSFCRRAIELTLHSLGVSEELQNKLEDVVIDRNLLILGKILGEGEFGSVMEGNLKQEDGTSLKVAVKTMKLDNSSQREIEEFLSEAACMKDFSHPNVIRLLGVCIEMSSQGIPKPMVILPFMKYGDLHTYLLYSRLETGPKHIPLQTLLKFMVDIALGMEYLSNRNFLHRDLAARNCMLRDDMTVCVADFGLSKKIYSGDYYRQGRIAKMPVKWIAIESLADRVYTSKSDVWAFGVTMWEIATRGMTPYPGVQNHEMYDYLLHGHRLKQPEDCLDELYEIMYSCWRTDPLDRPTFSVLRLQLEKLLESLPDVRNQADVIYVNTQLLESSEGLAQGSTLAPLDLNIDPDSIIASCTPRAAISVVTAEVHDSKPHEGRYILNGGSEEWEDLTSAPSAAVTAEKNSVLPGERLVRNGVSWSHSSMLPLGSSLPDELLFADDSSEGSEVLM

EPHB2 = EPHB2 (UniProt P29323); experiment: as above
c-Src SH2 = experiment: SH2 binding enrichment of the phosphorylated peptide, bacterial display (enrichment ratio); higher = better substrate or ligand; peptides without Tyr show the background
SHP2-C SH2 = experiment: as above
Grb2 SH2 = Grb2 SH2 (UniProt P62993); experiment: as above
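For SH2 binding enrichment of the phosphorylated peptide, bacterial display in this document: peptide library displayed on the E. coli surface as eCPX fusions, selected cells deep-sequenced, score is each peptide's frequency after selection divided by its frequency in the input.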
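For phosphorylation enrichment, bacterial display in this document: 11-residue human phosphosite peptides and single-mutation variants displayed on the E. coli surface, counted by deep sequencing, each peptide's frequency after selection divided by its frequency in the unselected input library; frequency after pTyr selection over input frequency; kinase dosed for 20-30% of maximal phosphorylation in three min.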

Sequence of Fes (P07332 whole entry, looked up): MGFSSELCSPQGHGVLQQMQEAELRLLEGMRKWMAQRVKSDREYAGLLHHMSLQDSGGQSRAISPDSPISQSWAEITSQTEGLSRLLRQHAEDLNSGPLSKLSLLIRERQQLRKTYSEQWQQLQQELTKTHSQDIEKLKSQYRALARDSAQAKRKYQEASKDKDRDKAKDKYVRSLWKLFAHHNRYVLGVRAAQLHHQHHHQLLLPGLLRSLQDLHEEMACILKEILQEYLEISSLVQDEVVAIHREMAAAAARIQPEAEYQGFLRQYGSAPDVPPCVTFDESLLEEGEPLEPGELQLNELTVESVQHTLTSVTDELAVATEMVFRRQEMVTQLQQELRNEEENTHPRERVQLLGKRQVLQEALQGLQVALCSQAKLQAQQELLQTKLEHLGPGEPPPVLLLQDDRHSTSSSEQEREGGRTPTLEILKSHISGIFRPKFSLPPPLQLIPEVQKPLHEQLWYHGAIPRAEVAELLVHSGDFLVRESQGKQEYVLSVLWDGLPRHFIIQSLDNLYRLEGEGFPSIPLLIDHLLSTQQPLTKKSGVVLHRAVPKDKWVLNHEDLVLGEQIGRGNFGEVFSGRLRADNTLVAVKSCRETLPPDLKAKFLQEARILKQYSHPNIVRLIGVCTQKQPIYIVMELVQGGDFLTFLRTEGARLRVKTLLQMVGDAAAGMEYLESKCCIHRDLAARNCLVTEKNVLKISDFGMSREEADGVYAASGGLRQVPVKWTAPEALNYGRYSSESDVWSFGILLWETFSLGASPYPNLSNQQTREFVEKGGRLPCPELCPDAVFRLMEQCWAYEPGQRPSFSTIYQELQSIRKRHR

SH2 binding enrichment (c-Src SH2) | SH2 binding enrichment (SHP2-C SH2) | SH2 binding enrichment (Grb2 SH2) | Sequence | phosphorylation enrichment (AncSZ) | phosphorylation enrichment (Fes) | phosphorylation enrichment (Fer (mouse)) | phosphorylation enrichment (Fyn) | phosphorylation enrichment (EPHB1) | phosphorylation enrichment (Hck) | phosphorylation enrichment (FGFR1) | phosphorylation enrichment (Jak2) | phosphorylation enrichment (FGFR3) | phosphorylation enrichment (c-Src) | phosphorylation enrichment (c-Abl (mouse)) | phosphorylation enrichment (MERTK) | phosphorylation enrichment (EPHB2)
3.35 | 12.3 | 0.667 | SSSNPYSTVTV [ACTN2_Y599_M604V] | 0.432 | 0.597 | 9.71 | 0.733 | 0.342 | 0.82 | 0.745 | 0.383 | 0.483 | 1.29 | 0.567 | 0.464 | 0.359
0.436 | 0.616 | 0.661 | TDISLYPSGGT [TENM4_Y399_V396I] | 0.637 | 0.84 | 0.39 | 0.414 | 0.46 | 0.398 | 0.457 | 0.657 | 0.536 | 0.391 | 0.528 | 0.394 | 0.632
0.519 | 0.712 | 0.843 | GESLTYVSTTF [C1orf162_Y120_A121V] | 0.954 | 1.07 | 0.512 | 0.569 | 0.532 | 0.621 | 0.508 | 0.691 | 0.62 | 0.664 | 0.494 | 0.538 | 0.563
0.959 | 1.22 | 1.14 | ITSLLYHVVGW [GBA_Y412_N409S] | 1.32 | 1.31 | 2.94 | 3.16 | 5.12 | 4.74 | 5.64 | 2.57 | 5 | 3.6 | 2 | 7.37 | 2.99
0.52 | 0.702 | 0.657 | GYQPDYGQPAG [SYP_Y278] | 0.701 | 0.671 | 0.38 | 0.384 | 0.442 | 0.409 | 0.465 | 0.564 | 0.551 | 0.342 | 0.556 | 0.334 | 0.378
0.425 | 0.96 | 0.892 | IGSHAYGDQFR [IDH1_Y135_R132S_YF] | 0.527 | 0.556 | 0.394 | 0.464 | 0.32 | 0.498 | 0.518 | 0.477 | 0.51 | 0.353 | 0.363 | 0.377 | 0.389
3.24 | 1.41 | 0.843 | DLAAQYTTVGH [SGSH_Y240_R245H] | 0.854 | 0.947 | 0.519 | 0.585 | 0.463 | 0.96 | 0.462 | 0.586 | 0.651 | 0.699 | 0.593 | 0.405 | 0.453
0.692 | 0.722 | 1.35 | GCKNRYDEDKP [THAP1_Y14_K16E] | 0.856 | 0.808 | 0.452 | 0.49 | 0.51 | 0.596 | 0.606 | 0.617 | 0.722 | 0.438 | 0.512 | 0.431 | 0.497
0.67 | 0.797 | 1.19 | DPLLTYWFPPK [LMNA_Y481_R482W] | 2.78 | 1.13 | 0.933 | 6.5 | 12.6 | 7.34 | 8.47 | 5.74 | 6.67 | 6.1 | 11.6 | 9.17 | 14.8
0.421 | 0.542 | 1.04 | ATHSGYRLNDF [CLDN14_Y233_YF] | 0.587 | 0.601 | 0.361 | 0.419 | 0.472 | 0.391 | 0.322 | 0.558 | 0.538 | 0.453 | 0.906 | 0.42 | 0.514
0.548 | 0.567 | 0.836 | VAMELYVFRGV [GAN_Y471_G474R] | 1.16 | 1.29 | 0.501 | 0.503 | 0.707 | 0.651 | 0.553 | 1.09 | 0.807 | 0.615 | 0.935 | 0.684 | 0.841
0.606 | 0.729 | 0.996 | EQKKFYNATKK [SCN5A_Y1495_M1498T_YF] | 0.668 | 0.674 | 0.374 | 0.437 | 0.383 | 0.449 | 0.412 | 0.436 | 0.487 | 0.554 | 0.497 | 0.404 | 0.348
0.516 | 0.635 | 0.976 | FPMLNYKDIRK [CFAP221_Y798] | 0.49 | 0.628 | 0.362 | 0.493 | 0.292 | 0.441 | 0.346 | 0.469 | 0.408 | 0.416 | 0.398 | 0.431 | 0.384
0.696 | 1.11 | 0.762 | PASLSYLSFEG [EXOSC3_Y143] | 0.942 | 0.954 | 0.501 | 0.819 | 0.745 | 0.602 | 0.591 | 1.18 | 0.742 | 1.1 | 0.619 | 0.661 | 0.789
0.453 | 0.528 | 0.742 | EFNINYNNEPP [THG1L_Y228_L232P] | 1.23 | 1.3 | 0.6 | 0.626 | 0.642 | 0.583 | 0.681 | 0.989 | 0.742 | 0.529 | 0.852 | 0.46 | 0.566
0.513 | 0.599 | 0.725 | MEVEQYIFVKC [CYBB_Y324_G322E] | 1.74 | 1.64 | 0.679 | 0.575 | 1.03 | 0.71 | 1.98 | 1.53 | 1.99 | 0.594 | 1.04 | 0.509 | 0.868
0.572 | 0.703 | 0.948 | VFLARYGPAWR [CYP2D6_Y124] | 1.12 | 1.21 | 0.413 | 0.434 | 0.405 | 0.548 | 0.468 | 0.793 | 0.501 | 0.603 | 0.52 | 0.472 | 0.598

SH2 binding enrichment (c-Src SH2) | SH2 binding enrichment (SHP2-C SH2) | SH2 binding enrichment (Grb2 SH2) | Sequence | phosphorylation enrichment (AncSZ) | phosphorylation enrichment (Fes) | phosphorylation enrichment (Fer (mouse)) | phosphorylation enrichment (Fyn) | phosphorylation enrichment (EPHB1) | phosphorylation enrichment (Hck) | phosphorylation enrichment (FGFR1) | phosphorylation enrichment (Jak2) | phosphorylation enrichment (FGFR3) | phosphorylation enrichment (c-Src) | phosphorylation enrichment (c-Abl (mouse)) | phosphorylation enrichment (MERTK) | phosphorylation enrichment (EPHB2)
0.759 | 0.712 | 0.872 | GMIQAYSSSQR [DES_Y5_S2I] | 0.485 | 0.509 | 0.319 | 0.346 | 0.401 | 0.412 | 0.384 | 0.442 | 0.389 | 0.37 | 0.42 | 0.357 | 0.334
1.06 | 0.738 | 0.877 | SVVMPYEPPEV [TP53_Y220_V218M] | 1.27 | 1.12 | 0.549 | 0.56 | 0.559 | 0.481 | 0.559 | 0.897 | 0.674 | 0.482 | 0.66 | 0.492 | 0.595
0.628 | 0.614 | 0.944 | KIFPEYLSNWT [AIFM1_Y347_L344F] | 0.914 | 0.916 | 0.502 | 0.43 | 0.513 | 0.488 | 0.811 | 1.18 | 0.721 | 0.479 | 0.657 | 0.47 | 0.512
0.437 | 0.557 | 0.843 | CEAMEYQESKQ [BTK_Y511_L512Q] | 1.57 | 1.48 | 0.609 | 0.63 | 0.76 | 0.705 | 0.723 | 1.19 | 1.08 | 0.629 | 0.765 | 0.589 | 0.557
1.11 | 1.13 | 0.968 | TLSGTYQFIIA [FOXL2_Y81_I80T_YF] | 1.27 | 1.05 | 1.44 | 0.814 | 1.31 | 1.34 | 2.22 | 0.732 | 1.9 | 0.892 | 0.611 | 2.89 | 0.924
0.86 | 0.472 | 0.709 | KVVVPYEPPEV [TP53_Y220_S215K] | 0.921 | 0.866 | 0.38 | 0.458 | 0.452 | 0.406 | 0.442 | 1 | 0.632 | 0.408 | 1.02 | 0.402 | 0.573
0.512 | 0.565 | 0.983 | SAEKAYHEQFS [TUBA1A_Y282_L286F] | 0.664 | 0.701 | 0.394 | 0.519 | 0.401 | 0.458 | 0.557 | 0.663 | 0.459 | 0.441 | 0.454 | 0.424 | 0.393
0.674 | 1.79 | 0.894 | KDFTKYVAFIE [KDM4B_Y31_N29T_YF] | 0.849 | 1.06 | 0.422 | 0.521 | 0.55 | 0.462 | 0.442 | 0.879 | 0.623 | 0.457 | 0.614 | 0.481 | 0.626
4.14 | 2.41 | 1.25 | CTTIHYNYMCN [TP53_Y234] | 0.853 | 0.903 | 0.557 | 0.453 | 0.762 | 0.482 | 0.539 | 0.661 | 0.692 | 0.469 | 0.471 | 0.485 | 0.696
0.504 | 0.555 | 0.522 | PLDGEYLTLQI [TP53_Y327_F328L] | 2.75 | 2.31 | 1.08 | 1.08 | 1.46 | 0.927 | 1.64 | 2.48 | 2.15 | 1.14 | 2.16 | 0.764 | 1.23
0.82 | 0.639 | 0.992 | GDRPVYSEDEQ [CHST6_Y362_Y358D] | 1.54 | 1.57 | 0.653 | 0.698 | 0.812 | 0.662 | 0.667 | 1.27 | 0.872 | 0.673 | 1.06 | 0.565 | 0.702
0.627 | 0.848 | 1.01 | YFRDGYMPRQY [GSS_Y270] | 0.615 | 0.74 | 0.531 | 0.479 | 0.429 | 0.402 | 3.74 | 0.928 | 2.73 | 0.509 | 0.496 | 0.418 | 0.491
0.424 | 0.79 | 0.817 | ADLAKYICENR [ALB_Y287_Q292R] | 0.84 | 0.946 | 0.498 | 0.427 | 0.537 | 0.447 | 0.469 | 0.928 | 0.691 | 0.467 | 1.36 | 0.45 | 0.406
0.538 | 0.778 | 0.828 | PAGSGYPAFLG [ATP6V1A_Y374_D371G_YF] | 1 | 1.13 | 0.512 | 0.478 | 0.634 | 0.626 | 0.737 | 0.687 | 0.794 | 0.735 | 0.869 | 0.469 | 1.17
0.576 | 0.683 | 0.845 | QISRDYGVLLE [PRDX3_Y172] | 0.922 | 1.04 | 0.637 | 0.624 | 0.617 | 0.751 | 0.523 | 0.862 | 0.69 | 0.679 | 0.635 | 0.64 | 0.731
0.516 | 0.803 | 0.904 | SSWKLYPRMLR [HAO1_Y50_R46S] | 0.773 | 0.871 | 0.454 | 0.404 | 0.457 | 0.433 | 0.44 | 0.635 | 0.472 | 0.366 | 0.539 | 0.432 | 0.463
